The target in the assay is T1, p75 (endogenous, mouse) (Mus musculus, UniProt Q9Z0W1 32-427).
T1 construct: Endogenous p75 of P7 mouse cerebellum and of cerebellar granule neurons; also called p75NTR
T1 sequence: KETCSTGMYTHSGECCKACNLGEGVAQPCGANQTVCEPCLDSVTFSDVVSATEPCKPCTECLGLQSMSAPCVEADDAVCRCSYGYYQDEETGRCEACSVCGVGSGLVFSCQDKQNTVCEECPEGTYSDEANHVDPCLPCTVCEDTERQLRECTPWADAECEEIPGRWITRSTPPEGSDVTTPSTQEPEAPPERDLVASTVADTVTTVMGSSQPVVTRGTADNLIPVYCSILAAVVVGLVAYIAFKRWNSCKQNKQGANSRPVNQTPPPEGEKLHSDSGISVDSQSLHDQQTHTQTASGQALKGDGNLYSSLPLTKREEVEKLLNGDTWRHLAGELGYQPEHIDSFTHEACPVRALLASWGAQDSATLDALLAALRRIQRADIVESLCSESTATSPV
The assay can be described thus: immunoprecipitation of P7 mouse cerebellar proteins with anti-p45 antibodies, immunoblot with anti-p75 antibodies.

This is an account of results in patent US20070004628A1 (SALK INSTITUTE FOR BIOLOGICAL STUDIES, published 2007).

B1: full-length p45 (p45-FL) (receptor)
chain: MLYNVSKGVVYSDTALQGQDGDREGMWVGAGGALAPNTSSLFPPEPPGASSNIIPVYCALLATVILGLLAYVAFKCWRSHKQRQQLAKARTVELGDPDRDQRRGDSNVFVDSPPSLEPCIPSQGPHPDLGCQLYLHIPQQQQEEVQRLLMMGEPAKGWQELAGHLGYQAEAVETMACDQMPAYTLLRNWAAQEGNRATLRVLEDALAAIGREDVVQVLSSPAESSSVV
notes: Untagged full-length p45 expressed in HEK293 cells or from transfected capped RNA in CGNs; Also used here for endogenous p45 of P7 mouse cerebellum; also called PLAIDD; NRADD
Turning to B1, the binding result is recorded as “binds”.
